From paper PMC10786891, “Massively parallel profiling of RNA-targeting CRISPR-Cas13d”
Residue numbers refer to the chain shown, from its start. Numbers in names are those of the source.

T1: EsCas13d, nuclease-dead (Eubacterium siraeum, UniProt B0MS50, R295A;H300A;R849A;H854A)
T1 sequence: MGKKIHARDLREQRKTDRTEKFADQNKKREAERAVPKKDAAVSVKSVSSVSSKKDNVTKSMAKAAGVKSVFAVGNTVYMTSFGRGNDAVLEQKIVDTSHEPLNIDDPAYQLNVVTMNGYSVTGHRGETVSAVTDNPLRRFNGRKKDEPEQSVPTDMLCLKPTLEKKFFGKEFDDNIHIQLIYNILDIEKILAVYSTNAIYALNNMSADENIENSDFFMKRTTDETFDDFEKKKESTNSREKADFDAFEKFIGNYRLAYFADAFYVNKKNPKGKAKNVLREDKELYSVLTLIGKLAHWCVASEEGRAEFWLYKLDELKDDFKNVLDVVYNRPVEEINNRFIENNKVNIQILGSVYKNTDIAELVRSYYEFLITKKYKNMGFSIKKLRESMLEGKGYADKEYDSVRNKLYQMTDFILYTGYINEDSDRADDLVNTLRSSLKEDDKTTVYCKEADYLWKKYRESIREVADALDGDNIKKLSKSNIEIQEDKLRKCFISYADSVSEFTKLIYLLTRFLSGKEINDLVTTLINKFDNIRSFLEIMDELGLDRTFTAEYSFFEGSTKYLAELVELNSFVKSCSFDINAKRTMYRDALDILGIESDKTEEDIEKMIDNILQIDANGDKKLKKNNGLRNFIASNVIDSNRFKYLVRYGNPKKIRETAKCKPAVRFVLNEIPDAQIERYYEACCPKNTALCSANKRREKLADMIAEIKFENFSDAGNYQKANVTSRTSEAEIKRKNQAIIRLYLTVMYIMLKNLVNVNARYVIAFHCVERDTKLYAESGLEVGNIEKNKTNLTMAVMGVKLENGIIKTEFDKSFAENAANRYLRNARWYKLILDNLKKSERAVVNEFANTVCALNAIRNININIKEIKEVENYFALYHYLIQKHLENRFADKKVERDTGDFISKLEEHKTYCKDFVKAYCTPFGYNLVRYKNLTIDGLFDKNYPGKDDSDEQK

B1: target 1 insU 3' of 20,insG 3' of 19 (mixed)
RNA 1: CACCCGUGCAAAAAUGCAGGGGUCUAAAACUGAGCGGAUAACCUCUCUAUGG
RNA 2: GGGAAUGGAUCCACAUCUACGAAUUCGUACCAUUGAGAGAGGUUAUCCGCUCACCGAGAUCGGAAGAGCACACGU
B2: target 1 insU 3' of 12,insC 3' of 11 (mixed)
RNA 1: B1 RNA 1
RNA 2: B1 RNA 2 with U34A, A40G, G41U, G42U, U43C
B3: target 1 del7,del8 (mixed)
RNA 1: B1 RNA 1
RNA 2: GGGAAUGGAUCCACAUCUACGAAUUCGUACCAUAGAGAGGUUACGCUCACCGAGAUCGGAAGAGCACACGU
B4: target 1 insU 3' of 13,insU 3' of 12 (mixed)
RNA 1: B1 RNA 1
RNA 2: B1 RNA 2 with U34A, A40U, G42U
B5: target 1 insA 3' of 7,insU 3' of 6 (mixed)
RNA 1: B1 RNA 1
RNA 2: B1 RNA 2 with U34A, A40G, G41U, G42U, U43A, A45C, U46A, C48U
B6: target 1 del3,del9 (mixed)
RNA 1: B1 RNA 1
RNA 2: B3 RNA 2 with A43U, G45C, C46G, U47C
B7: target 1 insG 3' of 8,insG 3' of 6 (mixed)
RNA 1: B1 RNA 1
RNA 2: B1 RNA 2 with U34A, A40G, G41U, G42U, U43A, A45G, U46C, C48G
B8: target 1 insA 3' of 15,insU 3' of 9 (mixed)
RNA 1: B1 RNA 1
RNA 2: B1 RNA 2 with U34A, G39A, A40G, G42U, U44A, A45U
B9: target 1 U10A,A18C (mixed)
RNA 1: B1 RNA 1
RNA 2: GGGAAUGGAUCCACAUCUACGAAUUCGUACCAUCGAGAGGUAAUCCGCUCACCGAGAUCGGAAGAGCACACGU
B10: target 1 insU 3' of 22,insG 3' of 18 (mixed)
RNA 1: B1 RNA 1
RNA 2: B1 RNA 2 with C31U, A32C, U33A, G35A, A36G
B11: target 1 C6G,G12U (mixed)
RNA 1: B1 RNA 1
RNA 2: B9 RNA 2 with C34A, G40U, A42U, C46G
B12: target 1 insC 3' of 20,insA 3' of 3 (mixed)
RNA 1: B1 RNA 1
RNA 2: GGGAAUGGAUCCACAUCUACGAAUUCGUACCACUAGAGAGGUUAUCCGCUACACCGAGAUCGGAAGAGCACACGU
B13: target 1 insU 3' of 18,insA 3' of 8 (mixed)
RNA 1: B1 RNA 1
RNA 2: B12 RNA 2 with C33U, U34A, A35U, C46A, G48C, C49G, U50C, A51U
B14: target 1 G12U,A16G (mixed)
RNA 1: B1 RNA 1
RNA 2: B9 RNA 2 with C34A, A36G, G40U, A42U
B15: target 1 insG 3' of 2,insG 3' of 1 (mixed)
RNA 1: B1 RNA 1
RNA 2: GGGAAUGGAUCCACAUCUACGAAUUCGUACCAUAGAGAGGUUAUCCGCUCGAGCCGAGAUCGGAAGAGCACACGU
B16: target 1 C7U,A14G (mixed)
RNA 1: B1 RNA 1
RNA 2: B9 RNA 2 with C34A, A38G, A42U, C45U
B17: target 1 insG 3' of 3,insU 3' of 1 (mixed)
RNA 1: B1 RNA 1
RNA 2: B15 RNA 2 with C50G, G51C, G53U
B18: target 1 insC 3' of 18,insU 3' of 15 (mixed)
RNA 1: B1 RNA 1
RNA 2: B1 RNA 2 with U34A, G35C, A36G, G37A, A38G, G39U
B19: target 1 G5C,A9C (mixed)
RNA 1: B1 RNA 1
RNA 2: B9 RNA 2 with C34A, A42U, A43C, G47C
B20: target 1 insU 3' of 9,insG 3' of 3 (mixed)
RNA 1: B1 RNA 1
RNA 2: B15 RNA 2 with C45U, G47C, C48G, U49C, C50U, A52C, G53A
B21: target 1 C6U,A9U (mixed)
RNA 1: B1 RNA 1
RNA 2: B9 RNA 2 with C34A, A42U, A43U, C46U
B22: target 1 G15A,C22U (mixed)
RNA 1: B1 RNA 1
RNA 2: B9 RNA 2 with C30U, C34A, G37A, A42U
B23: target 1 C4A,C6G (mixed)
RNA 1: B1 RNA 1
RNA 2: B9 RNA 2 with C34A, A42U, C46G, C48A
B24: target 1 complement block 2-13 (mixed)
RNA 1: B1 RNA 1
RNA 2: GGGAAUGGAUCCACAUCUACGAAUUCGUACCAUAGAGACCAAUAGGCGAGACCGAGAUCGGAAGAGCACACGU
B25: target 1 insU 3' of 20,insC 3' of 14 (mixed)
RNA 1: B1 RNA 1
RNA 2: B1 RNA 2 with G35A, A36G, G37A, A38G, G39A, A40C
B26: target 1 C2G,C4G (mixed)
RNA 1: B1 RNA 1
RNA 2: B9 RNA 2 with C34A, A42U, C48G, C50G
B27: target 1 G5C,G17C (mixed)
RNA 1: B1 RNA 1
RNA 2: B9 RNA 2 with C34A, G35C, A42U, G47C
B28: target 1 insA 3' of 12,insC 3' of 5 (mixed)
RNA 1: B1 RNA 1
RNA 2: B1 RNA 2 with U34A, A40G, G41A, G42U, U44A, A45U, U46C, C48G, G49C
B29: target 1 insA 3' of 10,insG 3' of 10 (mixed)
RNA 1: B1 RNA 1
RNA 2: B1 RNA 2 with U34A, A40G, G41U, G42U, U43A, U44G
B30: target 1 insG 3' of 20,insU 3' of 20 (mixed)
RNA 1: B1 RNA 1
RNA 2: B1 RNA 2 with U33G, G35U
B31: target 1 insA 3' of 13,insG 3' of 6 (mixed)
RNA 1: B1 RNA 1
RNA 2: B1 RNA 2 with U34A, G42U, U44A, A45U, U46C, C48G
B32: target 1 insG 3' of 4 (mixed)
RNA 1: B1 RNA 1
RNA 2: GGGAAUGGAUCCACAUCUACGAAUUCGUACCAUAGAGAGGUUAUCCGCGUCACCGAGAUCGGAAGAGCACACGU
B33: target 1 G5C,U10A (mixed)
RNA 1: B1 RNA 1
RNA 2: B9 RNA 2 with C34A, G47C

What follows are binders tested against T1, EsCas13d, nuclease-dead (assay: crRNA (strand 1, pre-loaded); Mg2+; 40 mM Tris-HCl pH 7.5, 150 mM NaCl, 6 mM MgCl2, 1 mM DTT, 0.1% Tween-20, 0.2 mg/ml BSA; 25 C; 10 min per concentration, then washed). Conditions: tags: His6-TwinStrep-SUMO cleaved; N-terminal SNAP kept (SNAP-Surface 488); label: 3' end held by stalled T7 RNA polymerase.

B1 and B2 are within error of each other in Kd: 30.4 ± 1.8 nM for the first, 25 ± 4 nM for the second.

B3 and B4 are within error of each other in Kd: 10.6 ± 0.7 nM for the first, 11.8 ± 1.3 nM for the second.

Compared with B5, B6 is 5.3-fold higher in Kd: 7.6 ± 0.5 nM for the first, 40 ± 5 nM for the second. The first binds more tightly here.

Going from B7 to B8, the Kd rises from 7.05 ± 0.26 nM to 24.4 ± 3.1 nM (3.5-fold). The first binds more tightly here.

B9 and B10 are within error of each other in Kd: 100 ± 17 nM for the first, 84 ± 17 nM for the second.

Going from B11 to B12, the Kd falls from 13.7 ± 1.2 nM to 8.76 ± 0.32 nM (1.6-fold).

B13 and B14 are within 1.5-fold of each other in Kd: 55 ± 4 nM for the first, 43 ± 5 nM for the second.

First: B15
Second: B16
The Kd of the first is 2.4-fold lower: 7 ± 0.6 nM for the first, 16.5 ± 1.6 nM for the second.

Compared with B17, B18 is 9.1-fold higher in Kd: 9.04 ± 0.35 nM for the first, 82 ± 33 nM for the second. The first binds more tightly here.

B19 and B20 are within 1.5-fold of each other in Kd: 16.7 ± 0.8 nM for the first, 12.7 ± 0.6 nM for the second.

Compared with B21, B22 is 2.2-fold higher in Kd: 8.2 ± 0.4 nM for the first, 17.7 ± 2.4 nM for the second. The first binds more tightly here.

Compared with B23, B24 is 14-fold higher in Kd: 5.4 ± 0.4 nM for the first, 74 ± 11 nM for the second.

Compared with B25, B26 is 7.3-fold lower in Kd: 51 ± 16 nM for the first, 7 ± 0.4 nM for the second. The second binds more tightly here.

First: B27
Second: B28
The Kd of the first is 2-fold higher: 48 ± 6 nM for the first, 23.6 ± 2.1 nM for the second.

Compared with B29, B30 is 2.3-fold higher in Kd: 12.3 ± 0.6 nM for the first, 28.4 ± 1.6 nM for the second.

Going from B31 to B32, the Kd rises from 3.93 ± 0.27 nM to 6.65 ± 0.25 nM (1.7-fold).

Binder B33 has a Kd of 11.8 ± 0.6 nM.
